Target: the molecule itself
Experiment: non-reducing SDS-PAGE with Western blot; cell-free extracts in Laemmli sample buffer without reducing agent, 10% SDS-PAGE, Western blot with anti-LS and anti-SS antibodies; shows disulfide-linked dimers only

B1: potato ADP-glucose pyrophosphorylase (AGPase) small subunit, wild type (enzyme, potato (S. tuberosum), UniProt P23509 1-521, looked up)
chain: VSDSQNSQTCLDPDASRSVLGIILGGGAGTRLYPLTKKRAKPAVPLGANYRLIDIPVSNCLNSNISKIYVLTQFNSASLNRHLSRAYASNMGGYKNEGFVEVLAAQQSPENPDWFQGTADAVRQYLWLFEEHTVLEYLILAGDHLYRMDYEKFIQAHRETDADITVAALPMDEKRATAFGLMKIDEEGRIIEFAEKPQGEQLQAMKVDTTILGLDDKRAKEMPFIASMGIYVISKDVMLNLLRDKFPGANDFGSEVIPGATSLGMRVQAYLYDGYWEDIGTIEAFYNANLGITKKPVPDFSFYDRSAPIYTQPRYLPPSKMLDADVTDSVIGEGCVIKNCKIHHSVVGLRSCISEGAIIEDSLLMGADYYETDADRKLLAAKGSVPIGIGKNCHIKRAIIDKNARIGDNVKIINKDNVQEAARETDGYFIKSGIVTVIKDALIPSGIII
notes: Small subunit of potato (Solanum tuberosum) tuber ADP-glucose pyrophosphorylase, cDNA in plasmid pML10; as far as I recall it lacks the transit peptide; also called SS; SS^WT; source: E. coli AC70R1-504 (glgC-), plasmid pML10, co-expressed with LS (pML7), in cell-free extract
  stoichiometry N: 2

Source: doi:10.1101/054106, “Glu-370 in the Large Subunit Influences the Substrate Binding, Allosteric, and Heat Stability Properties of Potato ADP-glucose Pyrophosphorylase” (bioRxiv, 2016)
